Measurements as given in US20240101692A1 (CEMM FORSCHUNGSZENTRUM F R MOLEKULARE MEDIZIN, published 2024).
Positions count from the first letter of the chain named. Blank lines part the entries; values can stand above or below the binder they belong to.

What was measured:
[1] = molecular target: heparan sulfate proteoglycan 2 (human, UniProt P98160 22-4391); assay: confocal microscopy of human coronary artery specimens stained with Aprily 2 and anti-HSPG2
Flag-mouse APRIL = molecular target: T1, Flag-mouse APRIL (mouse, UniProt Q9D777 96-241, limits assumed); assay: Western blot of 50 ng Flag-mAPRIL after SDS-PAGE
T1 construct: Denatured in the assay (SDS-PAGE and Western blot)
T1 sequence (looked up): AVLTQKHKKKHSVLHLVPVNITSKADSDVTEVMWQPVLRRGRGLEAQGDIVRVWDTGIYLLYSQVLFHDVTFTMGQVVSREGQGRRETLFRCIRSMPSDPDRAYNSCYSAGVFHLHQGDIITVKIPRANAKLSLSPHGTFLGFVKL
Experimental: 50 ng of Flag-mouse APRIL “m” or Flag-human APRIL “h” were analyzed by SDS-PAGE on a 12% acrylamide gel, followed by Western blotting with the indicated anti-APRIL antibodies at 1 μg/ml, followed by HRP-coupled anti-mouse secondary reagent, or with a biotinylated anti-Flag antibody (M2-biot) followed by HRP-coupled streptavidin. The micration of molecular weight markers (in kDa) are indicated on the left-hand side.

Fc-hAPRIL WT (ps1307) [2] = molecular target: T2, Fc-hAPRIL WT (ps1307) (human, UniProt O75888 115-250); assay: sandwich ELISA on supernatant of transfected cells, capture Aprily5, detection Aprily 1-biot
T2 construct: APRIL residues are counted from Met18; also called Fc-APRIL-ps1307
T2 sequence: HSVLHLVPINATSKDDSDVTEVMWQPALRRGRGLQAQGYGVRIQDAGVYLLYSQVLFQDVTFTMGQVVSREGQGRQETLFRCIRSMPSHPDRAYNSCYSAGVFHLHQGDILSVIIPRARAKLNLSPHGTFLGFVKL

[3] = molecular target: T3, Fc-hAPRIL C-terminal truncation ps4185 (aa 98-232) (human, UniProt O75888 115-249); assay: as above
T3 construct: also called Fc-APRIL-ps4185
T3 sequence: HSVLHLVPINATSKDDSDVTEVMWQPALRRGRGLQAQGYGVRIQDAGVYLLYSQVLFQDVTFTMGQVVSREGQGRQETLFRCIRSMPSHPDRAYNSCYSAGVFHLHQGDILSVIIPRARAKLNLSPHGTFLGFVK

[4] = molecular target: T4, Fc-hAPRIL C-terminal truncation ps4186 (aa 98-231) (human, UniProt O75888 115-248); assay: as above
T4 construct: also called Fc-APRIL-ps4186
T4 sequence: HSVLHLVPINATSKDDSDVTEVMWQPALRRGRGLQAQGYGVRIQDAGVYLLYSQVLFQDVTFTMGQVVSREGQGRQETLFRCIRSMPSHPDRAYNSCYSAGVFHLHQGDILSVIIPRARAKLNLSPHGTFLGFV

[5] = molecular target: T5, Fc-hAPRIL C-terminal truncation ps4187 (aa 98-230) (human, UniProt O75888 115-247); assay: as above
T5 construct: also called Fc-APRIL-ps4187
T5 sequence: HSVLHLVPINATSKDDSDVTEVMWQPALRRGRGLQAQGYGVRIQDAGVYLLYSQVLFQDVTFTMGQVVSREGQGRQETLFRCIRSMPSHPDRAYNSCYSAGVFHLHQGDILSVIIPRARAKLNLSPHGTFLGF

[6] = molecular target: T6, Fc-hAPRIL C-terminal truncation ps4188 (aa 98-229) (human, UniProt O75888 115-246); assay: as above
T6 construct: also called Fc-APRIL-ps4188
T6 sequence: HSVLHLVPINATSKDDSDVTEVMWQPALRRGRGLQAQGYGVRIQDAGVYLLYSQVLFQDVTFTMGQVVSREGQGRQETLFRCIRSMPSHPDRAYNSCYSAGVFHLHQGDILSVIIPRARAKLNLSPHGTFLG

Fc-hAPRIL WT (ps1307) [7] = molecular target: T2, Fc-hAPRIL WT (ps1307); assay: sandwich ELISA on supernatant of transfected cells, capture Aprily5, detection Aprily2-biot
[8] = molecular target: T3, Fc-hAPRIL C-terminal truncation ps4185 …; assay: as above
[9] = molecular target: T4, Fc-hAPRIL C-terminal truncation ps4186 …; assay: as above
[10] = molecular target: T5, Fc-hAPRIL C-terminal truncation ps4187 …; assay: as above
[11] = molecular target: T6, Fc-hAPRIL C-terminal truncation ps4188 …; assay: as above

- binding result [1]: binds
B1: APRIL in human arteries (ligand)
chain: AVLTQKQKKQHSVLHLVPINATSKDDSDVTEVMWQPALRRGRGLQAQGYGVRIQDAGVYLLYSQVLFQDVTFTMGQVVSREGQGRQETLFRCIRSMPSHPDRAYNSCYSAGVFHLHQGDILSVIIPRARAKLNLSPHGTFLGFVKL
notes: Endogenous protein in tissue sections

- binding result (Flag-mouse APRIL): no binding (tested: 1 µg/ml)
- binding result (Fc-hAPRIL WT (ps1307) [2]): binds
- binding result [3]: binds
- binding result [4]: binds
- binding result [5]: binds
- binding result [6]: binds
B2: Aprily 1 (antibody, V domains shown)
VH: QIQLVQSGPELKKPGETVRISCKASGYNFKTSGMSWVKQAPGKGLKWMGWIDTYAGVPTYTDDFKGRFVFSLETSATTAFLQINNLKNEDTGTYFCAREPGTDNWGQGTSLTVSS
VL: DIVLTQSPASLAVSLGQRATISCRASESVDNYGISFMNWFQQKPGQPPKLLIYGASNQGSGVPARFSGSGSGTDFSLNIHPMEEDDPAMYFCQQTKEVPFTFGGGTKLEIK
notes: Anti-human APRIL monoclonal antibody; Used biotinylated as detection antibody in some ELISAs; also called Aprily 1-biot

- binding result (Flag-mouse APRIL): no binding (tested: 1 µg/ml)
- binding result (Fc-hAPRIL WT (ps1307) [7]): binds
- binding result [8]: binds
- binding result [9]: binds
- binding result [10]: binds
- binding result [11]: binds
B3: Aprily 2 (antibody, V domains shown)
VH: B2 VH with N28T, T53A, V57I, V69A, E73D
VL: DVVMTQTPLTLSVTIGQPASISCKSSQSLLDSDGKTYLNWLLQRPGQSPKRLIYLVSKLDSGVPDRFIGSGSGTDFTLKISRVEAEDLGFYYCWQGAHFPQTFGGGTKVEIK
notes: Anti-human APRIL monoclonal antibody; Used coupled to beads for depletion and biotinylated for detection; also called Aprily 2-biot
